Results reported in patent publication US11434506B2, “Production of desaturated fatty alcohols and desaturated fatty alcohol acetates in yeast” (Danmarks Tekniske Universitet, priority 2016, dated 2022).

B1: D. melanogaster desaturase: Δ9 desaturase from Drosophila melanogaster Dmd9, SEQ ID NO: 10 (protein)
chain: MAPYSRIYHQDKSSRETGVLFEDDAQTVDSDLTTDRFQLKRAEKRRLPLVWRNIILFALVHLAALYGLHSIFTRAKLATTLFAAGLYIIGMLGVTAGAHRLWAHRTYKAKWPLRLLLVIFNTIAFQDAVYHWARDHRVHHKYSETDADPHNATRGFFFSHVGWLLCKKHPDIKEKGRGLDLSDLRADPILMFQRKHYYILMPLACFVLPTVIPMVYWNETLASSWFVATMFRWCFQLNMTWLVNSAAHKFGNRPYDKTMNPTQNAFVSAFTFGEGWHNYHHAFPWDYKTAEWGCYSLNITTAFIDLFAKIGWAYDLKTVAPDVIQRRVLRTGDGSHELWGWGDKDLTAEDARNVLLVDKSR
modifications: Drosophila melanogaster

Experiments:
fall armyworm = conditions: applied alone, without other pheromone components; cited from earlier work
C14-CoA substrate = experiment: activity and specificity of heterologous desaturases in yeast fed methyl myristate, FAMEs by GC-MS; type: cell-based, S. cerevisiae; conditions: among the tested desaturases
[1] = production of (Z)-9-tetradecen-1-yl acetate by S. cerevisiae CEN.PK102-5B strains, GC-MS; conditions: overexpression of desaturase, ST5290 versus ST4854
Method: The strains for production of pheromone were created on the basis of S. cerevisiae CEN.PK102-5B, which had active OLE1 and ELO1 genes.
Strains ST4854 and ST5290 were inoculated into 5 ml synthetic complete medium (lacking histidine, leucine, tryptophan supplemented with 20 mg/L uracil and 76 mg/L histidine) and cultivated in 12-ml glass tubes (Duran, Wertheim, Germany) with metal labocap lids (Lüdiswiss, Flawil, Switzerland) overnight at 30° C. with shaking at 250 rpm. The following day the overnight culture was centrifuged, the supernatant was discarded and the pellet was resuspended in 2 ml of mineral medium, which had the composition as described in (Jensen et al, 2014). The medium was supplemented with 76 mg/L histidine and 20 mg/L uracil. The cultures were incubated at 30° C. with shaking at 250 rpm for 48 hours.
1 mL sample of culture was transferred into a 4-mL glass vial and 10 μL of internal standard stock (1 μg/μl (Z)10-heptan-1-yl methyl ester in 100% ethanol) was added. The vials were covered with small pieces of aluminum foil and we used a needle to pierce small holes in the foil covers. The samples were vortexed and placed at −80° C. for storage until analysis. […] The concentration of (Z)-9-tetradecen-1-yl acetate was calculated based on internal standard.

Row | Molecule | disruption of mating efficiency (fall armyworm) [%] | activity and specificity towards C14-CoA substrate (C14-CoA substrate) | increase of titer of Z9:14:OAc [1]
1 | CCCC/C=C\CCCCCCCCOC(C)=O [(Z)19-14:OAc, (Z)9-tetradecen-1-yl acetate] | 86 | – | –
2 | B1 | – | highest activity and specificity | more than 5 fold
